Measured values reported in the Human Domainome abundance scans (Beltran et al. 2025).
± gives the uncertainty stated by the source.

B1: POU domain, class 3, transcription factor 2, residues 262 to 338; numbered along this chain, P20265 (parent)
chain: EDTPTSDDLEQFAKQFKQRRIKLGFTQADVGLALGTLYGNVFSQTTICRFEALQLSFKNMCKLKPLLNKWLEEADSS

Variants of: B1
Test: abundance fitness (aPCA) (normalised: wild type 0, dead -1); higher = more abundant; growth selection in yeast, the domain comes from the species named
Details: Homo sapiens

Row | Variant | abundance fitness
1 | EDTPTSDDLEQFAKQFKQRRIKLGFTKADVGLALGTLYGNVFSQTTICRFEALQLSFKNMCKLKPLLNKWLEEADSS [Q27K] | -0.132 ± 0.053
2 | EDTPTSDDLEQFAKQFKQRRIKLGFTQADVGLALGTLYGNVFSQTTICRFEALQLSFKNMCKLKPLLNVWLEEADSS [K69V] | -0.273 ± 0.084
3 | EDNPTSDDLEQFAKQFKQRRIKLGFTQADVGLALGTLYGNVFSQTTICRFEALQLSFKNMCKLKPLLNKWLEEADSS [T3N] | -0.203 ± 0.05
4 | EDTPTSDDLEQFAKQFKQRRIKLGFTQADVGLALGTLYGNVFSQTTICRFEELQLSFKNMCKLKPLLNKWLEEADSS [A52E] | 0.048 ± 0.031
5 | EDTPTSDDLEQFAKQFKQRRIKLGFTQADVGLALGTLYGNVFSQTTICRFEYLQLSFKNMCKLKPLLNKWLEEADSS [A52Y] | -0.534 ± 0.17
6 | EDTPTSDDLEQFACQFKQRRIKLGFTQADVGLALGTLYGNVFSQTTICRFEALQLSFKNMCKLKPLLNKWLEEADSS [K14C] | -0.136 ± 0.11
7 | EDTPTSDDLEQFAKQFKQRRIKLGFTQADVGLALGTLYGNVFSQTTIVRFEALQLSFKNMCKLKPLLNKWLEEADSS [C48V] | -0.099 ± 0.026
8 | EDTPTSDDLEQFAKQFKQRRIKLGFTQADVGLALGTLYGNVFSQTTIWRFEALQLSFKNMCKLKPLLNKWLEEADSS [C48W] | -0.108 ± 0.036
9 | EDTPTSDDLEQFAKQFKQRRIKLGFTQADVGLALGTLYGNVFQQTTICRFEALQLSFKNMCKLKPLLNKWLEEADSS [S43Q] | -0.166 ± 0.045
10 | EDTPTSDDLEQFAKQFKQRRIKLGFTQADVGLALGILYGNVFSQTTICRFEALQLSFKNMCKLKPLLNKWLEEADSS [T36I] | -0.184 ± 0.093
11 | EDTPTSDDLEQFAKQFKQRRIKLGFTQADVGLALGSLYGNVFSQTTICRFEALQLSFKNMCKLKPLLNKWLEEADSS [T36S] | 0.042 ± 0.036
12 | EDTPTSDDLEQFAKQFKQRRIKLGFTQADVGLALGRLYGNVFSQTTICRFEALQLSFKNMCKLKPLLNKWLEEADSS [T36R] | 0.012 ± 0.027
13 | EDTPTSDDLEAFAKQFKQRRIKLGFTQADVGLALGTLYGNVFSQTTICRFEALQLSFKNMCKLKPLLNKWLEEADSS [Q11A] | 0.016 ± 0.038
14 | EDTPTSDDLEQFAKQFKQRRIKLGFTQADVGLALGTLYGNVFSQTTICRFEALQLSFKNMCKLFPLLNKWLEEADSS [K64F] | -0.264 ± 0.1
15 | EDTPTSDDLEQFAKQFKQRRIKLGFTQADVGLALGTLYGNVFSQTTICRFEALQLSFKNMCKLEPLLNKWLEEADSS [K64E] | -0.3 ± 0.046
16 | EDTPTSDDLEQFAKQFKQRRIKLGFTQADVGLALGTLYGDVFSQTTICRFEALQLSFKNMCKLKPLLNKWLEEADSS [N40D] | 0.016 ± 0.059
17 | EDTPTSDDLEQFAKQFKQRRIKLGFTQADVGLALGTLYGNVFSQTTICRFEALQLSFKNMNKLKPLLNKWLEEADSS [C61N] | -0.107 ± 0.075
18 | EDTPTSDDLEQFAKQFKQRRIKLGFTQADVGLALGTLYGNVFSQTTICRFEALQLSFKNMCKLKPLLNKVLEEADSS [W70V] | -0.411 ± 0.042

Row | Variant | abundance fitness
19 | EDTPTSDDLEQFAKQFKQRRIKLGFTQADVGLALGTLYGNVFSQTTICRFEALQLSFKNMCKLKPLLNKSLEEADSS [W70S] | -0.742 ± 0.065
20 | EDTPTSDDLEQFAKQFKQRRIKLGFTQADVGLALGTLYGNVFSQTTICRFEALQLSFKNMCKLKPLLNKPLEEADSS [W70P] | -0.853 ± 0.11
21 | EDTPTSDDLEQFVKQFKQRRIKLGFTQADVGLALGTLYGNVFSQTTICRFEALQLSFKNMCKLKPLLNKWLEEADSS [A13V] | -0.044 ± 0.034
22 | EDTPTSDDLEQFGKQFKQRRIKLGFTQADVGLALGTLYGNVFSQTTICRFEALQLSFKNMCKLKPLLNKWLEEADSS [A13G] | -0.605 ± 0.051
23 | EDTPTSDDLEQFAKQFKQRRIKLGFTQADVGLALGTLYGNVFSQTTICRFEALQLSFKNMCKLKPGLNKWLEEADSS [L66G] | -0.536 ± 0.037
24 | EDTPTSDDLEQTAKQFKQRRIKLGFTQADVGLALGTLYGNVFSQTTICRFEALQLSFKNMCKLKPLLNKWLEEADSS [F12T] | -0.359 ± 0.15
25 | EDTPTSDDLEQFAKQFKQRRIKLGFTQADVGLELGTLYGNVFSQTTICRFEALQLSFKNMCKLKPLLNKWLEEADSS [A33E] | -0.172 ± 0.042
26 | EDTPFSDDLEQFAKQFKQRRIKLGFTQADVGLALGTLYGNVFSQTTICRFEALQLSFKNMCKLKPLLNKWLEEADSS [T5F] | -0.109 ± 0.094
27 | EDTPTSDDLEQFAKQFKQRRIKLGFTQADVGLALGTLYGNVFSQTTICRFEALQLCFKNMCKLKPLLNKWLEEADSS [S56C] | -0.303 ± 0.056
28 | EDTPTSDDLEQFAKQFKQRRIKLGFTQADVGLALGTLYGNKFSQTTICRFEALQLSFKNMCKLKPLLNKWLEEADSS [V41K] | 0.065 ± 0.057
29 | EDTPTSDDLEQFAKQFKQRRIKLGFTQADVGLALGTLYGNVFSQTTICRFPALQLSFKNMCKLKPLLNKWLEEADSS [E51P] | -0.795 ± 0.11
30 | EDTPTSDDLEQFAKQFKQRRIKLGFTQADVGLALGTLYGNVFSQTTICRFIALQLSFKNMCKLKPLLNKWLEEADSS [E51I] | -0.503 ± 0.14
31 | EDTPTSDDLEQFAKQFKQRRIKLGFTQADVGLALGTLYGNVFSQTTICRFYALQLSFKNMCKLKPLLNKWLEEADSS [E51Y] | -0.999 ± 0.36
32 | EDTPTSDDLEQFAKQFKQRRIKGGFTQADVGLALGTLYGNVFSQTTICRFEALQLSFKNMCKLKPLLNKWLEEADSS [L23G] | -0.398 ± 0.045
33 | EDTPTSDDLEQFAKQFKQMRIKLGFTQADVGLALGTLYGNVFSQTTICRFEALQLSFKNMCKLKPLLNKWLEEADSS [R19M] | -0.1 ± 0.049
34 | EDTPTSDDLEQFAKQFKQRRIKLGFTQADVGLALGTLYGNVFSQTTICRFEALQLSFKNMCKGKPLLNKWLEEADSS [L63G] | -0.796 ± 0.041
35 | EDTPTSDDLEQFAKQFKQRRIKLGFTQADVGLALGTLYGNVFSQTTICRFEALQQSFKNMCKLKPLLNKWLEEADSS [L55Q] | -0.506 ± 0.064
36 | EDTCTSDDLEQFAKQFKQRRIKLGFTQADVGLALGTLYGNVFSQTTICRFEALQLSFKNMCKLKPLLNKWLEEADSS [P4C] | 0.108 ± 0.062
